The values below are quoted from earlier work in publication PMC4030972.

The target of the data set is cholera toxin A1 subunit CtxA1 (Vibrio cholerae) (UniProt P01555).
UniProt P01555, sequence (P01555 19-212): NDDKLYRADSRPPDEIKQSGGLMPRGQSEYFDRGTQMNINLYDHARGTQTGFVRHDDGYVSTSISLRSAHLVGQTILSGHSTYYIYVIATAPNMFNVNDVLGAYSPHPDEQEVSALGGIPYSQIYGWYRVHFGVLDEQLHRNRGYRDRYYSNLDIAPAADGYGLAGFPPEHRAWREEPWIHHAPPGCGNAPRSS

By Kd is commonly meant the free concentration of one partner at which half of the binding sites on the other are occupied at equilibrium, for simple one-to-one binding. With Hsp90 (from UniProt P08238), the Kd was 7 nM.
